In patent publication US20210230238A1 (DEUTSCHES KREBSFORSCHUNGSZENTRUM STIFTUNG DES FFENTLICHEN …, published 2021):

Legend:
Assay in all cases: SPR, Dectin-1 immobilized, 1:1 model
[1] = biological target: T1, murine annexin A1 (murine, UniProt P10107 2-346)
T1 construct: Recombinant protein; also called mAnxA1
T1 sequence: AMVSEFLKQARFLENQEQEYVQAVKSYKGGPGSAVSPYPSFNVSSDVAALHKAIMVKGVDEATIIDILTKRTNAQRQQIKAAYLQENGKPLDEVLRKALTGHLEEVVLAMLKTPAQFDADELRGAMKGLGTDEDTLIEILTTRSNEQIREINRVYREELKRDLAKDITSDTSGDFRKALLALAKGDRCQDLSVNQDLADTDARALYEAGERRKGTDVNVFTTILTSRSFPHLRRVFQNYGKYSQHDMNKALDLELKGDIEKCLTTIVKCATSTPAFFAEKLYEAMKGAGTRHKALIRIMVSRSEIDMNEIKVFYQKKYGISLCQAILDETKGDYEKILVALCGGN

[2] = biological target: T2, murine annexin A1 core domain (murine, UniProt P10107 41-344)
T2 construct: Recombinant core domain; also called mAnxA1 core; core annexin A1 domain
T2 sequence: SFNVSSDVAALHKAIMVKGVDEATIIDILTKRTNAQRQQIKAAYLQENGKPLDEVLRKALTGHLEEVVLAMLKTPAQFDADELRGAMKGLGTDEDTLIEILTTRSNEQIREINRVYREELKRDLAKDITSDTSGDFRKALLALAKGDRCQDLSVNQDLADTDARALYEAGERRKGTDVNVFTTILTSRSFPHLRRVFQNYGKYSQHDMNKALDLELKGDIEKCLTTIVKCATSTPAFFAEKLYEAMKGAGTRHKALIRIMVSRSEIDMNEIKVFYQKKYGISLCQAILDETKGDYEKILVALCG

[3] = biological target: T3, murine annexin A5 (murine, UniProt P48036 2-319)
T3 construct: Recombinant protein; also called mAnxA5
T3 sequence: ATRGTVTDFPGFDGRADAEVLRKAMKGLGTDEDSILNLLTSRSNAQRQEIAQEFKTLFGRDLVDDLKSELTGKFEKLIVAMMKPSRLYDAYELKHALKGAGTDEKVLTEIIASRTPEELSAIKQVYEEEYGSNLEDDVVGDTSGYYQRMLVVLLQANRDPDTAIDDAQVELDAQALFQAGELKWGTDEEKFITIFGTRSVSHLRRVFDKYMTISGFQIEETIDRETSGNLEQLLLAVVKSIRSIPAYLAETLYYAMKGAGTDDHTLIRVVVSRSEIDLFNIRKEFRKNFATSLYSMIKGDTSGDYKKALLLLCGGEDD

[4] = biological target: T4, murine annexin A13 (murine, UniProt Q99JG3 2-317)
T4 construct: Recombinant protein; also called mAnxA13
T4 sequence: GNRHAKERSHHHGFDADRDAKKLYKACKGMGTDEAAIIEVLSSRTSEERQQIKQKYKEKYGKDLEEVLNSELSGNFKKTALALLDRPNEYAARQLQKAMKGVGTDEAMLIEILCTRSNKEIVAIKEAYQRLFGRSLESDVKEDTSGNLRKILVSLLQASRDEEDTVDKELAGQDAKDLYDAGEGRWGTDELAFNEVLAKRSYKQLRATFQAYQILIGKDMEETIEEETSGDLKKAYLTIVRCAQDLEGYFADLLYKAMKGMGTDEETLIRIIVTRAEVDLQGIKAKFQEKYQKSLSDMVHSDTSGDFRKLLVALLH

Kd [1]: ~100 nM
Kd [2]: ~100 nM
Kd [3]: ~100 nM
Kd [4]: ~100 nM
B1: Dectin-1 (receptor)
chain: GHNSGRNPEEKDNFLSRNKENHKPTESSLDEKVAPSKASQTTGGFSQPCLPNWIMHGKSCYLFSFSGNSWYGSKRHCSQLGAHLLKIDNSKEFEFIESQTSSHRINAFWIGLSRNQSEGPWFWEDGSAFFPNSFQVRNTAPQESLLHNCVWIHGSEVYNQICNTSSYSICEKEL
